These sequences were tested on MS2 coat protein (assay: apparent KD of MS2 coat protein, switch OFF state (with FMN for OFF switches, without FMN for ON switches); designed switch direction (-1 OFF switch, 1 ON switch): -1; higher = weaker reporter binding). Conditions: FMN input: 0 or 200 uM; Eterna round: R93 (includes R88 designs).
Method in brief: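 Designed RNA switches were made by on-chip transcription from Illumina sequencing clusters and then titrated with SNAP-549-labelled MS2 coat protein. Twofold steps ran from 0.7 or 1.5 nM to 3 µM, each lasting 0.8–1.5 h early and 10–20 min late, in 100 mM Tris-HCl pH 7.5, 80 mM KCl, 4 mM MgCl2, without or with constant ligand. Apparent KD is the per-design median of normalised cluster binding-curve fits.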
With “AACAGUACAGGAUAUACAUGAGGAUCACCCAUGUGAAAAUUAAGUGGGAAACCACAGUGUAGAAGGGUACUGAA [Mat - Exclusion 3 - Eli mod - D55]” the “apparent KD of MS2 coat protein” value was 93 nM.
For “AGAAAGCGAGGAUAUGCACGGGAAGAAAGAAGAGAGAAAAAACAUGAGGAUCACCCAUGUAGAAGGUGUAUAAA [JR_Exc002_Sub1713]”, the “apparent KD of MS2 coat protein” value was 25.8 nM.
With “AAAGAUACAGGAUAUACAUGAGGAUCACCCAUGUGGAACCAAAAAUGGGAAAAAGAAAGUAGAAGGGUAUAAAA [Ex 3 May 37]” the “apparent KD of MS2 coat protein” value was 35.7 nM.
“AGGAAACAUGAGGAUCACCCAUGUUAGGAUAUGAACGAAAAUAAAUAAAAAUAAAAGUUCAGAAGGGACAAAAA [66%, Wbt, 19]” was tested, and the “apparent KD of MS2 coat protein” value was 39.6 nM.
In the case of “AAAAAACAUGAGGAUCACCCAUGUCAGGAUAUGCGAAGCAAAAAAAAAAAAAAGCGAAGUAGAAGGGACUAAAA [Exclusion1 Malc#6]”, the “apparent KD of MS2 coat protein” value is reported as 40.1 nM.
In the case of “ACUUGACAUGAGGAUCACCCAUGUCAGGAUAUAGUAGGACAAAUAAAUAAAAGUUCUACUAGAAGGGAUAUGGG [Design 20: G-U+ 4]”, the “apparent KD of MS2 coat protein” value is reported as 36.5 nM.
In the case of “UAGAACCUAGGAUAUACUUGGGAAACUAAUGCAAAGAUAUAACAUGAGGAUCACCCAUGUAGAAGGAGGAGUAA [JR_Exc002_Sub019]”, the “apparent KD of MS2 coat protein” value is reported as 132 nM.
In the case of “GGUUGGCGAGGAUAUACAUGAGGAUCACCCAUGUGAGAGAAAAAAGUGAGUAAGAAAAGUAGAAGGCGCUGACG [salish99-ex3-33]”, the “apparent KD of MS2 coat protein” value is reported as 4710 nM.
In the case of “AAAAAGCGAGGAUAUACUAAAAAACCUCAAAAAAAAAAAAAACAUGAGGAUCACCCAUGUAGAAGGCGCAAAAA [JR_Exc002_Sub001]”, the “apparent KD of MS2 coat protein” value is reported as 113 nM.
With “AAACCACAUGAGGAUCACCCAUGUUAGGAUAUGAACGAAAAUAAAUAAAAAUAAAAGUUCAGAAGGGACAAAAA [66%, Wbt, 21]” the “apparent KD of MS2 coat protein” value was 14.9 nM.
In the case of “AAAGACAGAGGAUAUACAUGAGGAUCACCCAUGUGGCGAAAAAAAAUCCAUUUGGCAUGUAGAAGGCUGUAUGA [Orerzadi]”, the “apparent KD of MS2 coat protein” value is reported as 51.3 nM.
For “AAAAAACAUGAGGAUCACCCAUGUGAGGAUAUCCAGAAGGGAAUAAAAUAACUCGAAAGGAGAAGGCGCAAAAA [Ex 1 May 34]”, the “apparent KD of MS2 coat protein” value was 26.2 nM.
“AACUAGUCAGGAUAUGCGAACAGAUAAUAAGCUACACAAAAGCAGAAGGGACAUGAGGAUCACCCAUGUAAAUA [JR_Exc004_Sub502]” was tested, and the “apparent KD of MS2 coat protein” value was 33 nM.
In the case of “GCUGGCGAAGGAUAUACAUGAGGAUCACCCAUGUGAGAGAAAAAAGUGAGAAAGAAAAGUAGAAGGUCGUUAGG [salish99-ex3-96]”, the “apparent KD of MS2 coat protein” value is reported as 70.4 nM.
In the case of “AAAAAACAUGAGGAUCACCCAUGUGAGGAUAUGCGAAAAUAAAAUAAAAUAAUAAAAAGCAGAAGGCACAAAAA [58%, Sh'dynasty, 1]”, the “apparent KD of MS2 coat protein” value is reported as 89.3 nM.
For “AAGAAGUGAGGAUAUACAUGAGGAUCACCCAUGUAAAAGAAAGAGGGAAAAGAGAAAAGUAGAAGGCACAAGAA [Weserkare-meryamun Ptolemy II Philadelphos]”, the “apparent KD of MS2 coat protein” value was 33.7 nM.
With “UAUAGACAUGAGGAUCACCCAUGUGAGGAUAUCAGUGACUACAGGACAUCACGUACAAUGAGAAGGCACAGAAA [JR_Exc001_Sub015]” the “apparent KD of MS2 coat protein” value was 45.2 nM.
With “AAAAAACAUGAGGAUCACCCAUGUCAGGAUAUGCUCAGCAAUAUUCCAAUAAAGAACGGUAGAAGGGACAGGAA [Bilbo Confounded 24 - Jieux - Exclusion 1]” the “apparent KD of MS2 coat protein” value was 26.6 nM.
For “AACGUACAUGAGGAUCACCCAUGUUAGGAUAUAUAUACAGGAAAACAUUCUAAUGUAAAUAGAAGGAACGAAAA [Bilbo Confounded 21 - Jieux - Exclusion 1]”, the “apparent KD of MS2 coat protein” value was 10.8 nM.
“AAAAAACAUGAGGAUCACCCAUGUAAGGAUAUGUAAAAUAAAAGAAAAAUAAAGAAAAGCAGAAGGUACAUGAA [JL wbt mod 14]” was tested, and the “apparent KD of MS2 coat protein” value was 60.5 nM.
For “AAGAACGUAGGAUAUACAUGAGGAUCACCCAUGUAAAAGAAAGAAGGGAAAGAGAAAAGUAGAAGGACGAAGAA [Wahkare Bakenrenef]”, the “apparent KD of MS2 coat protein” value was 34.4 nM.
In the case of “AAAAAGUGAGGAUAUACGCUGUGGAGUAGACACAACCAGGCGUAGAAGGCACAUGAGGAUCACCCAUGUCCAAA [EX4 Malc#18]”, the “apparent KD of MS2 coat protein” value is reported as 44.1 nM.
For “UAAAAACAUGAGGAUCACCCAUGUCAGGAUAUGUGCUUAAUAAAAAAAUAAAUAACAAGCAGAAGGGACAAUAA [JR_Exc001_Sub201]”, the “apparent KD of MS2 coat protein” value was 34.4 nM.
“AAAAAGCUAGGAUAUACAUGAGGAUCACCCAUGUAAAAAAAAAAAAAGGGAAAAAAAAGUAGAAGGAGCAAAAA [Merankhre Mentuhotep VI]” was tested, and the “apparent KD of MS2 coat protein” value was 26 nM.
For “AUCAUGUUAGGAUAUUAAAGAAAAGAAAAGAAAGAAAAGAAUAAGAAGGAACAUGAGGAUCACCCAUGUAAGAA [EteRNA is fun!]”, the “apparent KD of MS2 coat protein” value was 29.7 nM.
For “CUCAAGUGAGGAUAUUAAAGAAAAGAAGAGAAAGAAAAGAAUAAGAAGGCACAUGAGGAUCACCCAUGUAAGAA [EteRNA is fun!]”, the “apparent KD of MS2 coat protein” value was 33 nM.
“GCUUGGCAAGGAUAUACAUGAGGAUCACCCAUGUGAGAGAAAAAAGUGAGAAAGAAAAGUAGAAGGUGCUGAGG [salish99-ex3-109]” was tested, and the “apparent KD of MS2 coat protein” value was 82.2 nM.
In the case of “CGCUAGUCAGGAUAUACGAACAUGUCAAAAGACGUGAAAAAACAUGAGGAUCACCCAUGUAGAAGGGACUAGCG [Mat - Exclusion 2 - JL mod - D17]”, the “apparent KD of MS2 coat protein” value is reported as 14.9 nM.
For “AAAAGACAUGAGGAUCACCCAUGUGAGGAUAUCGGAAAAGGAAAAAUAAAAAAGAAGACGAGAAGGCACACCAA [Mat - Exclusion 1 - Eli mod - D75]”, the “apparent KD of MS2 coat protein” value was 48.2 nM.
In the case of “AGCUAGUCAGGAUAUACGAACAUGUCAAAAGACGUGAGAGAACAUGAGGAUCACCCAUGUAGAAGGGACUAGCA [Mat - Exclusion 2 - JL-Eli mod - D47]”, the “apparent KD of MS2 coat protein” value is reported as 13.1 nM.
With “AAAAUACAUGAGGAUCACCCAUGUGAGGAUAUGCAAAACCCAUAUAAAAAGGGAAAAAGCAGAAGGCACAAAAA [wbt round 1 mod 15]” the “apparent KD of MS2 coat protein” value was 52.9 nM.
For “CUCAUGUUAGGAUAUUAAUGAAAUGAAGUGAAAGAAAAGAAUAAGAAGGAACAUGAGGAUCACCCAUGUUAGAA [EteRNA is fun!]”, the “apparent KD of MS2 coat protein” value was 25.2 nM.
In the case of “AACAUGUCAGGAUAUUAAAGAAAAGAAAAGAAAGAAAAGAAUAAGAAGGGACAUGAGGAUCACCCAUGUAAGAA [EteRNA is fun!]”, the “apparent KD of MS2 coat protein” value is reported as 37 nM.
“AAAAGACAUGAGGAUCACCCAUGUCAGGAUAUGACUUGAAAAAUAAAAUAAAAACAUGUCAGAAGGGACAUGAA [Design 46: Sub-opt DB]” was tested, and the “apparent KD of MS2 coat protein” value was 25.2 nM.
For “AAAAAACAUGAGGAUCACCCAUGUAAGGAUAUGCUAAAAAACGCAAAAAAAGCGAAUAGCAGAAGGUACAAAAG [Mat - Exclusion 1 - Eli mod - D81]”, the “apparent KD of MS2 coat protein” value was 70.5 nM.
“AACAGUACAGGAUAUACAUGAGGAUCACCCAUGUGAGUUUUAAAAGGCGUACCUAAAAGUAGAAGGGUACUGGA [JL Maslow Revisted mod 20]” was tested, and the “apparent KD of MS2 coat protein” value was 44.2 nM.
For “UCGAUGCGAGGAUAUACUAAGGCAACUACUGCAGCUCAAAAACAUGAGGAUCACCCAUGUAGAAGGCGCAUAUA [JR_Exc002_Sub304]”, the “apparent KD of MS2 coat protein” value was 18.1 nM.
For “AAAACGUGAGGAUAUGCACCAAAAAAGAAAAAACGGGUACGACAUGAGGAUCACCCAUGUAGAAGGCACGAAAA [Frodo Flailing 8 - Jieux - Exclusion 2]”, the “apparent KD of MS2 coat protein” value was 37.2 nM.
“UAAAAUAAAGGAUAUAAAACAGAGGAUAUACAUAAAUAAAAACAUGAGGAUCACCCAUGUAGAAGGCUGAAAAU [Meechl Ex2 R2 m1]” was tested, and the “apparent KD of MS2 coat protein” value was 28.4 nM.
With “AAAAAACAUGAGGAUCACCCAUGUAAGGAUAUCUAAAAUAAAAGAAAAAUAAAGAAAAGGAGAAGGUAUAUGGA [JL wbt mod 24]” the “apparent KD of MS2 coat protein” value was 37.3 nM.
For “CCUGUGUGAGGAUAUGGUAUAAAAAAAAAAAAAUAGCUCCUCCAGAAGGCACAUGAGGAUCACCCAUGUCGUGG [Jolly's Folly 17 - Jieux - Exclusion 4]”, the “apparent KD of MS2 coat protein” value was 57.1 nM.
“AAAGAUGGAGGAUAUACAUGAGGAUCACCCAUGUGGAAAAAAAAUUGGGAAAAAGAAAGUAGAAGGCCAAAAAA [Ex 3 May 42]” was tested, and the “apparent KD of MS2 coat protein” value was 155 nM.
“AAAAAGGCAGGAUAUACAUGAGGAUCACCCAUGUAAAAAAAAAAAAAAGGGAAAAAAAGUAGAAGGGCCAAAAA [Along]” was tested, and the “apparent KD of MS2 coat protein” value was 53.4 nM.
“AAACAGGGAGGAUAUACACCAUACAAACCUCUAAACAAAAGACAUGAGGAUCACCCAUGUAGAAGGCCCAACAA [Default title]” was tested, and the “apparent KD of MS2 coat protein” value was 103 nM.

From the supplement of paper PMC9170038
